The values that follow come from the DeepSol protein solubility set.

The nature of the data set: soluble on expression in E. coli; label from the status in PepcDB or PDB records.
Turning to “MSSLLTIALAVTISCVNTVEDQYFGGQNAEPVAKVEQKATSNNTLADLEKDPLYPYIDKQNKLVEKNGIQYIENEENILVLANKDYSLQPTYTPPDLVRPNVTFSFGNEQVEKAQLRKEAGTALEEMFKAANQDGKKLFAVSGYRSYKRQQEVFQAEVNSKGDKKAREAVAYPGTSEHQTGLAMDISSENQSYELTEAFGTTPEGKWLEENAHNYGFILRYMKGREDITKYQYESWHYRYVGKDAATIIYKNNWTLEEFFEHVKALQKKVDAAK”, the “soluble on expression in E. coli” value is reported as “not soluble”.
As to “MGSDKIHHHHHHMKPLRKIRLGIVGCGIAARELHLPALKNLSHLFEITAVTSRTRSHAEEFAKMVGNPAVFDSYEELLESGLVDAVDLTLPVELNLPFIEKALRKGVHVICEKPISTDVETGKKVVELSEKSEKTVYIAENFRHVPAFWKAKELVESGAIGDPVFMNWQIWVGMDENNKYVHTDWRKKPKHVGGFLSDGGVHHAAAMRLILGEIEWISAVAKDLSPLLGGMDFLSSIFEFENGTVGNYTISYSLKGNERFEITGTKGKISISWDKIVLNEEEMKVPQENSYQKEFEDFYQVVAEGKPNDLGSPVQALKDLAFIEACVRSAGNKVFVSSLL”, the “soluble on expression in E. coli” value is listed as “soluble”.
With “DARFSLGGYAGGMYDVHVKNSWYVQPQLLFTYEEFRSKTRLGTDSFFSKFNLELPILASYNVALNNKWNLHINAGPYLSYAMFGRDKSIDYAYGNGMHSSLGWWHQDFPDHFTYGGRAGVSLESEHFIYTIDGKCSLRKRPFGRSVSLSAGVGYKF”, the “soluble on expression in E. coli” value is “not soluble”.
In the case of “MGSDKIHHHHHHMALFESYDRRIDHINAVLNEYGINGIEDAKAICDAKGIDPYTMCKETQPICFENACWAYVVGAAIAIKKGCTNAAEAAEAIGIGLQAFCIAGSVADDRKVGIGHGNLAARLLREETKCFAFLAGHESFAAAEGAIKIAEMANKVRKEPLRVILNGLGKDAAKIISRINGFTYVQTQFDYMTGEVNVIEEKAYSNGLRAKVKCYGADDVREGVAIMRKEGVDVSITGNSTNPTRFQHPVAGTYKKECMENGHPYFSVASGGGTGRTLHPDNMAAGPASYGMTDTMGRMHGDAQFAGSSSVPAHVEMMGFLGMGNNPMVGATVAVAVAIEEAMKK”, the “soluble on expression in E. coli” value is listed as “not soluble”.
In the case of “IEAENHKVTDKIKNAQPFLVDVVPAKSVIPELNDDAQKTLLHAGPPIQWSEMTGPMKGACIGAALFERWADNEEDALKIFEAGEVRFIPCHHVKAVGPMGGITSGNMPVFVVENRLEGNEAYCILNEGIGKVLRFGAYSQEVVDRLDWIKDVLGPTIAKALKLSEEGLNLNVLIARSITMGDEFHQRNIAASLNFLKELSPLIIKTDIPEDQKYEVIKFLADTDQFFLNVMMATGKAIVDGARKDTNGTIVTTMTRNGVNFGVRIAETGDQWHTAPVNTPKGLYFTGFSEEDGNPDVGDSAITETVGVGAMAMVAAPGVTRFVGAGGFEDALATSNEMAKICEGNNPTFSIPTWDFQGTCLGIDIRKVVELGITPIINTGIAHKNAGVGQIGAGTVRAPLGCFEKALEAYAEKLGITVE”, the “soluble on expression in E. coli” value was “not soluble”.
Under “MGSDKIHHHHHHMPQITIIVPVYNAERTLERCVRSIQAQTVVNWELLLIDDGSEDYSSKLCDEYAIQDSRIRVFHQVNGGASSARNVGLEYTKGEWVVFCDSDDWVDSNWLELFKNQIDNGTELIVQGFIPHGNLWQSRTGINFHGNVKTGILKLQEENILGFMCTKMYKREIIEQCGLRFDTELVLREDELFMLQYAEYISTIQCMEEGAYHYDMPDFSTKYGNIDLFNMFLKIYVVLKRIFSGEDNLLLQNYENDLTQSLFHSFVMRHDDRCKKLENYRKEVGKRVLGVKSLSQFSKYILAYVPSFQVAYLLLEAKAKIVKSMQ” stands “not soluble”.
Regarding “SAASGESGTSGGGGSTEEAFMTFYSEVKQIEKRDSVLTSKNQIERLTRPGSSYFNLNPFEVLQIDPEVTDEEIKKRFRQLSILVHPDKNQDDADRAQKAFEAVDKAYKLLLDQEQKKRALDVIQAGKEYVEHTVKERKKQLKKEGKPTIVEEDDPELFKQAVYKQTMKLFAELEIKRKEREAKEMHERKRQREEEIEAQEKAKREREWQKNFEESRDGRVDSWRNFQANTKGKKEKKNRTFLRPPKVKMEQRE”, the “soluble on expression in E. coli” value is “soluble”.
With “MSLREEIKVAVLRMEGTNCEDETVKAFRSLGVEAEAVHIKQFYSDMIRFEEQRSVFDYQCLVFPGGFSAGDYIRAGAIFSARVKSVLRKDIEEFIKMGYPILGICNGFQVLVELGALPGFDEDKPLAEKPEMALAMNDSSRFECRPTLLKKESEKCIFVKNLKKDVVMFPVAHAEGKVVFPSGKEDEYLERLTSNDQIVFRYVDEKGDYAGYPWNPNGSFYNIAGICNATHTVFGLMPHPERAFFGYQVGRREGYGDGYCIFRSVVDYLEEGHHHHHH”, the “soluble on expression in E. coli” value was “not soluble”.
Consider “MGHHHHHHSHMPASLALLQPRAMMKTLSSGNCTLSVPAKNSYRMVVLGASRVGKSSIVSRFLNGRFEDQYTPTIEDFHRKVYNIRGDMYQLDILDTSGNHPFPAMRRLSILTGDVFILVFSLDNRESFDEVKRLQKQILEVKSCLKNKTKEAAELPMVICGNKNDHGELCRQVPTTEAELLVSGDENCAYFEVSAKKNTNVDEMFYVLFSMAKLPHEMSPALHRKISVQYGDAFHPRPFCMRRVKEMDAYGMVSPFARRPSVNSDLKYIKAKVLREGQARERDKCTIQ”, for which the “soluble on expression in E. coli” value is “not soluble”.
Under “TPMYESTSELYVLSKSTSITSLADIQTGTSLTNDYIVVVKGRPVLDQVIENLNLNESYKTLGGRVTLDNPSNSRVLNITVTDPDPQMAKTIADEIAKVASAYIAEKMKQDPPTIIQSGYDDGGAVSPNIGKNT” stands “not soluble”; under “MRVLVRNDKDDFRVKAYAGTNGVLLAMDLDASRRQGLLGFAIEKQTGSKPWLFLFNSLTFPGKAHTFPQYNATPSDQAPLQKFRWADYAVNPGATLNYRVHLAYGNPDAPQLGESLQLSITADNGQPPGQRVIFNRAVAASQAFSRKFPELDALLSANKNLPIEKWPDAPRQWLENGLLEALLGFIQRATDASWSLDIAIYEYQLQAIIDAVNAAFDRGVQVRVLYHAAPGDADTTMNQASLQHLPEANKRGRVTHAIFHDKFIVLGRLDAAGQRQPQSVLCGSTNFTANGVYRQANVLHSLDHVDIATRYLEVFEQVWATPADVGATRTWLTRNNPMQPQAPLFAGFSPRSGQGDLAEFVDIINGARRDLLFVTAFALPDSILDALLGQPHDDVLRYGLQNTASRITGFHADRTAEFAATALLNNGLEGWLKEGLKGQKGNLLVHTKAIVTDFTSEAPVIISGSHNLSVGASQSNDENFLIIRGDIDLADRYGLELLRFYEHYRFRYFARQLALKQVQPLAVDDSWSNAYYLEGDLRQLSRLRFSGRLEHHHHHH”, “not soluble”.
On to “GPGSMTSLNTELALAKRFHMLSKNYSNRPVIARRNTLPTLVRFIRSNDRETRHYSLSALLLLAQHEENVELLCLERGLVPGVYAVYKDADYDDPQLREIADQILNCLEPVLQGRDPRKASQTSVTPVGSSSDAVDSDPLNDSFSPSRRARAGRVLRGVGSDAIHTVLLDIPALDPNGGDNIEAIEDIFQTTRGVLSYSIFVENRQARLFVTCATQVVQQVLSDSGFESVVVRDDVVNQEMFGGGADGSAGLNSGGNRSNTSYYDGGSPQHRPSYLQSVANSIYQSALVLGGGSRNNDTLSARVNEQRTREQEGESTFGYISKTLSKWW”, for which the “soluble on expression in E. coli” value is reported as “not soluble”.
In the case of “MSDNSTGTTKSRSNVDDVQAHYDLSDAFFALFQDPTRTYSCAYFERDDMTLHEAQVAKLDLTLGKLGLEPGMTLLDVGCGWGSVMKRAVERYDVNVVGLTLSKNQHAYCQQVLDKVDTNRSHRVLLSDWANFSEPVDRIVTIEAIEHFGFERYDDFFKFAYNAMPADGVMLLHSITGLHVKQVIERGIPLTMEMAKFIRFIVTDIFPGGRLPTIETIEEHVTKAGFTITDIQSLQPHFARTLDLWAEALQAHKDEAIEIQSAEVYERYMKYLTGCAKAFRMGYIDCNQFTLAK”, the “soluble on expression in E. coli” value is recorded as “soluble”.
For the sequence “SLDSKTTVNINIPSGSSVSAIASILKKNDVIKSEKAFQYYVKYKGASGFQAGFYHLNKGMDLDAIIQKLTSGATGYAFQITVTEGAQLTQIAAAIADETKYSKKQVIAKLDDETFINQLKKEFPDTVTNDVFNKNIKHPLEGYLFPATYPFNDPDTSLEDIIKAMIKQTNSYVETYKSEMKKNKVSVHKLLTMASLIEEEATEKADRHKIASVFYNRLKKKMPLQTDPTVLYAAGKHKDRVLYKDLEIDSPYNTYKNTGLTPGPIANAGMSSWEAALHPDKTDYLYFLAKSNGEVVFTKTLKEHNKAKEKYISSKNEK”, the “soluble on expression in E. coli” value is recorded as “soluble”.
Take “MGSDKIHHHHHHMCNYNQLFENIAELVMHHSPSGAEAEINQLLLQKFAALGVEVWSDRADNIIAKIPGKNSERAVAITAHKDEIGAIVKNIGDAGKVEVRKLGGAYPWVYGEGVVDLLGDNETISGILSFGSRHVSHESPQKVQQEDTAVKWENAWIETKRTTEELEIAGIRPGTRMVIGKHRKHPVKLQDHIASYTLDNKASVAILLALAQQLKQPAMDVYLVASAKEEVGAIGALFFTQNQQLDALIALEICPLSEEYPVKDSENPVLLIQDAYGIYDEGLNGELRQCAKQLNMPVQLTTLSGFGSDASIAMKFGHVGRAACLAFPTQNTHGYEIAHLGAISNCINLLKAFCETEF”: the “soluble on expression in E. coli” value is on record as “not soluble”.
Turning to “MSLSFKNVNLIYADIATDSAETPETVLTQDDLEKEFEFWEATSLGLFDYMRKSRSKGFVLSLSGGADSSACAIMVAEMIRKGLKELGLTAFLQKSNMETLFDLPALQHLPFEEQAKKITAVFLTTAYQSTRNSGDETYTSAKTLAESIGATFYNWSVDEEIEQYKATIENVIERPLTWEKDDITLQNIQARGRAPIIWMLTNVKQALLITTSNRSEGDVGYATMDGDTAGGIAPIAGVDKDFIRSWLRWAEKNRNQHGLHIVNKLAPTAELRPSEYTQTDERDLMPYDVLARIERKAIKERLSPVQVYTALLTEGPYTKNEFKYWVKKFFRLWSINQWKRERLAPSFHMDDFNIDPRSWYRFPILSSGFAKELNDLDQEGHHHHHH”, the “soluble on expression in E. coli” value was “not soluble”.
“MAHHHHHHMLQQLNEEKNIRKALESRIREVNVSLRRYGVCIADAKEVTNESREFSEATDAFILAALEEKDTMDGDLCAKLQQQLRVKQRLTELRHQHQRKLDDMLRKYELIKTGRTTANNGAGADNNMLHPGLVDEAAAQQIKELLHRKDEEIERVIKEKEKTCDRIVKKLNKCELRIKELEATLEEERVQSTEERQELDRENRELQRYNQQLSVELETLRGQLSEMKEEMDFMERAKSAEIERWKEEAANGAGRLEEMRFKMAAYSELQKSYDRLQEQLQRTEVSLKEKSDNLENTRQMVKWSNSLLATEKQKVEQMEMMLKQQEVEMRRREEQLKSEMMNDINKQVAANNRRMQEQAAQYQELISQEQDKQKSIMKKVKSSRKETQKAAQRYDEMILENEALLSKLEELKVTSMRIFLEKQEAQRELEALRPTKHVANRRL”: the “soluble on expression in E. coli” value was “not soluble”.
Turning to “MKKTLTVTLSSIAAFIAINTAANAQESETSQLDTYATGDVITNQSNLGIYIVKPGDSLYKIALEHNLSLEELYALNPGVEPLIFPGDEIVVSETAFEQFNNTNTFVNYETNYIPVGYNNVSTDTSNTTYDNYDSESTDTYSVSNAYDGLRSVSNSGNLYTTGQCTYYAFDRRAELGKPIGSLWGNASNWAYSANQAGFNVDHTPEVGAVFQSGPGQNGAGAYGHVGVVESINSNGSVTVSEMNWNGGVNVKSYRTISNPNSYNYIHLEHHHHHH”, the “soluble on expression in E. coli” value was “not soluble”.
With “MIKIPQAGRDLETIAVIGAGTIGSAISISLAKAGYHVISTRRRPDLNAGLKAYGITVTSDNVQAVTSADMVILTLKPADLVSEMKKLSQILEGKIVVSMAAAVPIRVIRHILPRSFIVRSMTNIAAEVNAGYTPFCTLEEDEGKISFVSRVLGVFGETERVDEKYMDALTAL” the entry was “not soluble”.
